Data set [1] has as its system biotinyl-Val-oxazolone. Description: self-aminoacylation, catalytic enhancement (BVO) (fold over background); higher = more active; k-Seq, kA / k0A0; sequences stand for … in GGGAAUGGAUCCACAUCUACGAAUUC…UUCACUGCAGACUUGACGAAGCUG
The method in brief:
(§1)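 Mutagenized RNA pools (0.43 μM; 21-nt variable region) were treated with 2–1250 μM of each biotinyl-aminoacyl-oxazolone. Conditions were 50 μL HEPES/NaCl/KCl/MgCl2/CaCl2 buffer, 5% acetonitrile, pH 6.9–7.0, room temperature, 90 minutes. Catalytic enhancement, the median kA relative to the uncatalyzed rate, was derived from streptavidin capture, qPCR and Illumina sequencing.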

Data set [2] has as its system biotinyl-Ile-oxazolone. Nature of the data set: self-aminoacylation, catalytic enhancement (BIO) (fold over background); higher = more active; k-Seq, kA / k0A0; sequences stand for … in GGGAAUGGAUCCACAUCUACGAAUUC…UUCACUGCAGACUUGACGAAGCUG
The essentials: as §1

Data set [3] concerns biotinyl-Leu-oxazolone. Nature of the data set: self-aminoacylation, catalytic enhancement (BLO) (fold over background); higher = more active; k-Seq, kA / k0A0; sequences stand for … in GGGAAUGGAUCCACAUCUACGAAUUC…UUCACUGCAGACUUGACGAAGCUG
The essentials:
as §1

Data set [4] concerns biotinyl-Trp-oxazolone. Nature of the data set: self-aminoacylation, catalytic enhancement (BWO) (fold over background); higher = more active; k-Seq, kA / k0A0; sequences stand for … in GGGAAUGGAUCCACAUCUACGAAUUC…UUCACUGCAGACUUGACGAAGCUG
The essentials:
as §1

For data set [5], the system named is biotinyl-Met-oxazolone. Description: self-aminoacylation, catalytic enhancement (BMO) (fold over background); higher = more active; k-Seq, kA / k0A0; sequences stand for … in GGGAAUGGAUCCACAUCUACGAAUUC…UUCACUGCAGACUUGACGAAGCUG
The essentials: as §1

For data set [6], the system named is biotinyl-Phe-oxazolone. Nature of the data set: self-aminoacylation, catalytic enhancement (BFO) (fold over background); higher = more active; k-Seq, kA / k0A0; sequences stand for … in GGGAAUGGAUCCACAUCUACGAAUUC…UUCACUGCAGACUUGACGAAGCUG
The method in brief: as §1

These results are taken from the supplement of paper PMC9233669.

This sample holds only a part of the variants without activity.

As for “ACUACCCUGAUCAUCGAGUGA [Fam2.1 aminoacylation ribozyme variant]”, the self-aminoacylation amounted to 3.38 in data set [1]; 3.87 in data set [2]; 5.88 in data set [3]; 7.58 in data set [4]; 5.52 in data set [5]; 6.61 in data set [6].

“ACUACCCUGGUCAUCGAGUGA [Fam2.1 aminoacylation ribozyme variant]”: the self-aminoacylation in data set [1] was determined as 17.4; in data set [2] it was 16.2; in data set [3], 43.4; in data set [4] it was 45.2; in data set [5], 44.3; in data set [6], 266.

Turning to “ACUACCCUGGUCAUGGAGUGA [Fam2.1 aminoacylation ribozyme variant]”, the self-aminoacylation stood at 2.59 in data set [1]; 2.86 in data set [2]; 3.32 in data set [3]; 3.33 in data set [4]; 3.35 in data set [5]; 11.6 in data set [6].

“ACUACCCUUGUCAUCGAGUGA [Fam2.1 aminoacylation ribozyme variant]”: the self-aminoacylation in data set [1] was found to be 3.24; in data set [2], 3.28; in data set [3], 6.34; in data set [4], 6.54; in data set [5], 6.22; in data set [6], 28.7.

As to “ACUACCGUGGUCAUCGAGUGA [Fam2.1 aminoacylation ribozyme variant]”, the self-aminoacylation in data set [1] was found to be 3.29; in data set [2], 3.41; in data set [3], 5.21; in data set [4], 6.91; in data set [5], 5.28; in data set [6] it was 18.

For the sequence “ACUACGCUGGUCAUCGAGUGA [Fam2.1 aminoacylation ribozyme variant]”, the self-aminoacylation stood at 4.04 in data set [1]; 4.74 in data set [2]; 5.5 in data set [3]; 7.58 in data set [4]; 5.77 in data set [5]; 35.1 in data set [6].

With “ACUCACCUAAGUCAUCGGGUG [Fam2.2 aminoacylation ribozyme variant]”, the self-aminoacylation in data set [1] came out at 5.83; in data set [2], 5.02; in data set [3] it was 10.5; in data set [4], 10.6; in data set [5] it was 9.14; in data set [6] it was 67.2.

Regarding “ACUCACCUACGUCAUCGGGUG [Fam2.2 aminoacylation ribozyme variant]”, the self-aminoacylation in data set [1] stood at 4.69; in data set [2], 3.98; in data set [3], 7.79; in data set [4] it was 6.64; in data set [5] it was 6.25; in data set [6], 57.3.

In the case of “ACUCACCUAGGGCAUCGGGUG [Fam2.2 aminoacylation ribozyme variant]”, the self-aminoacylation in data set [1] worked out at 3.83; in data set [2] it was 4.42; in data set [3], 5.19; in data set [4], 6.35; in data set [5], 3.92; in data set [6], 18.2.

On to “ACUCACCUAGGUAAUCGGGUG [Fam2.2 aminoacylation ribozyme variant]”, for which the self-aminoacylation in data set [1] was 2.85; in data set [2], 3.22; in data set [3], 3.66; in data set [4], 4.3; in data set [5], 4.2; in data set [6], 23.9.

Regarding “ACUCACCUAGGUCAUCGGAUG [Fam2.2 aminoacylation ribozyme variant]”, the self-aminoacylation in data set [1] worked out at 1.02; in data set [2], 1.13; in data set [3] it was 0.812; in data set [4], 1.48; in data set [5], 0.912; in data set [6], 0.718.

Turning to “ACUCACCUAGGUCAUCUGGUG [Fam2.2 aminoacylation ribozyme variant]”, the self-aminoacylation in data set [1] came to 1.57; in data set [2] it was 1.68; in data set [3], 2.03; in data set [4], 2.35; in data set [5], 1.87; in data set [6] it was 6.43.

In the case of “ACUCACCUAGGUCAUUGGGUG [Fam2.2 aminoacylation ribozyme variant]”, the self-aminoacylation in data set [1] worked out at 2.56; in data set [2] it was 2.31; in data set [3], 2.91; in data set [4], 3.78; in data set [5], 2.35; in data set [6] it was 14.3.

As to “ACUCACCUAGGUUAUCGGGUG [Fam2.2 aminoacylation ribozyme variant]”, the self-aminoacylation in data set [1] is 5.05; in data set [2], 4.89; in data set [3] it was 5.42; in data set [4], 7.29; in data set [5] it was 3.92; in data set [6] it was 46.

On to “ACUCAUCUAGGUCAUCGGGUG [Fam2.2 aminoacylation ribozyme variant]”, for which the self-aminoacylation in data set [1] is 5.04; in data set [2], 5.55; in data set [3] it was 6.97; in data set [4], 7.26; in data set [5], 6.28; in data set [6] it was 42.4.

“ACUUUUGCUAAUAGUCGCAAG [Fam3.1 aminoacylation ribozyme variant]”: the self-aminoacylation was 2.57 in data set [1]; 2.75 in data set [2]; 2.68 in data set [3]; 2.56 in data set [4]; 2.59 in data set [5]; 3.71 in data set [6].

With “AGGUUUGCUAACAGUCGCAAG [Fam3.1 aminoacylation ribozyme variant]”, the self-aminoacylation in data set [1] is 1.25; in data set [2], 1.57; in data set [3] it was 1.66; in data set [4], 4.91; in data set [5] it was 1.68; in data set [6], 15.2.

As to “AGGUUUGCUAAUAGUCGAAAG [Fam3.1 aminoacylation ribozyme variant]”, the self-aminoacylation in data set [1] is 1.02; in data set [2], 1.2; in data set [3] it was 0.991; in data set [4] it was 3.4; in data set [5] it was 1.16; in data set [6], 13.6.

For the sequence “AGGUUUGCUAAUAGUCGCAAU [Fam3.1 aminoacylation ribozyme variant]”, the self-aminoacylation in data set [1] was found to be 1.85; in data set [2], 2.08; in data set [3] it was 1.86; in data set [4], 2.08; in data set [5], 1.63; in data set [6], 2.94.

In the case of “AGGUUUGCUAUUAGUCGCAAG [Fam3.1 aminoacylation ribozyme variant]”, the self-aminoacylation in data set [1] was found to be 1.17; in data set [2], 1.28; in data set [3], 1.49; in data set [4], 1.08; in data set [5], 1.17; in data set [6] it was 3.21.

For “AGUAACCUAGGUCAUCGGGUG [Fam2.2 aminoacylation ribozyme variant]”, the self-aminoacylation in data set [1] stood at 3.63; in data set [2] it was 4.57; in data set [3], 6.07; in data set [4] it was 7.15; in data set [5] it was 5.37; in data set [6], 33.3.

In the case of “AGUACACUGGUCAUCGAGUGA [Fam2.1 aminoacylation ribozyme variant]”, the self-aminoacylation in data set [1] was 2.81; in data set [2] it was 3.01; in data set [3] it was 4.42; in data set [4], 5.76; in data set [5], 4.07; in data set [6], 19.1.

Regarding “AGUACCCCGGUCAUCGAGUGA [Fam2.1 aminoacylation ribozyme variant]”, the self-aminoacylation in data set [1] was found to be 3.75; in data set [2] it was 3.7; in data set [3], 6.8; in data set [4], 7.21; in data set [5], 5.52; in data set [6], 43.9.

“AGUACCCGGGUCAUCGAGUGA [Fam2.1 aminoacylation ribozyme variant]”: the self-aminoacylation was 3.98 in data set [1]; 4.51 in data set [2]; 7.7 in data set [3]; 7.64 in data set [4]; 7.25 in data set [5]; 49.1 in data set [6].

As to “AGUACCCUGGACAUCGAGUGA [Fam2.1 aminoacylation ribozyme variant]”, the self-aminoacylation in data set [1] stood at 2.8; in data set [2], 2.69; in data set [3], 6.32; in data set [4] it was 5.83; in data set [5], 5.06; in data set [6], 21.2.
